# Reference: article PMC8024323, “Drosophila TNFRs Grindelwald and Wengen bind Eiger with different affinities and promote distinct cellular functions” (Nature Communications, 2021)
# B1: Grnd^30–97 (extracellular domain of Grindelwald) [Drosophila melanogaster] / Egr^146–409 (extracellular portion of Eiger, His6-tagged) [Drosophila melanogaster] (parent complex)
# chain 1: GESRDCHGTICHPVNEFCYVATERCHPCIEVCNNQTHNYDAFLCAKECSAYKTFEPLKAEMLDIQNTQ
# chain 2: GADYEDYTDMLNKLNNAHTGTTPTSETTAEGEGETDSASSASNDDNVFDDFTSYNAHKKKQERKSRSIADVRNEEQNIQGNHTELQEKSSNEATSKESPAPLHHRRRMHSRHRHLLVRKARSEDSRPAAHFHLSSRRRHQGSMGYHGDMYIGNDNERNSYQGHFQTRDGVLTVTNTGLYYVYAQICYNNSHDQNGFIVFQGDTPFLQCLNTVPTNMPHKVHTCHTSGLIHLERNERIHLKDIHNDRNAVLREGNNRSYFGIFKV
# Variants of: B1
# Experiment: ITC; parent: 30.8 nM
row,Kd,Variant
1,1.3 µM,chain 1 GESRDCHGTICHPVNEFCYVATARCHPCIEVCNNQTHNYDAFLCAKECSAYKTFEPLKAEMLDIQNTQ [chain 1 E23A]
2,4.5 µM,chain 1 GESRDCHGTICHPVNEFCYVATERCHPCIEVCNNQTHAYDAFLCAKECSAYKTFEPLKAEMLDIQNTQ [chain 1 N38A]
3,4.8 µM,chain 1 GESRDCHGTICHPVNEFCYVATERCHPCIEVCNNQTANYDAFLCAKECSAYKTFEPLKAEMLDIQNTQ [chain 1 H37A]
